Consider 1 molecule from paper PMC6754785 (Nature microbiology, 2019).

The assay has as its target T1, NXF1 (residues 117–619) (human, UniProt Q9UBU9 117-619).
T1 sequence: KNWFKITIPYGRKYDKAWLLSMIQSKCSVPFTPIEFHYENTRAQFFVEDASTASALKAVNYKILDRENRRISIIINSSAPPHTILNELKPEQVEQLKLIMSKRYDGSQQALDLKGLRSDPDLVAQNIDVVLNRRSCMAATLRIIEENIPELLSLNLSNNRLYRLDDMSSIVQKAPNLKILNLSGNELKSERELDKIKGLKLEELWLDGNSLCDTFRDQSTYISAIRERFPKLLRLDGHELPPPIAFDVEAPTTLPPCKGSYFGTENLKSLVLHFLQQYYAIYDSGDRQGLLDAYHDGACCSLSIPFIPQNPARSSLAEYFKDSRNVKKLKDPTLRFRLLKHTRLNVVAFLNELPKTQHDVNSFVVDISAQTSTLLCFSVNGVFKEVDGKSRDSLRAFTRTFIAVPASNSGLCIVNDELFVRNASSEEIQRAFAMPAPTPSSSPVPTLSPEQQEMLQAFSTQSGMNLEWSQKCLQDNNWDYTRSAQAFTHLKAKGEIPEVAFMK
In words: crystal structure.

B1: NXT1 (residues 1–140) (natural protein)
chain: MASVDFKTYVDQACRAAEEFVNVYYTTMDKRRRLLSRLYMGTATLVWNGNAVSGQESLSEFFEMLPSSEFQISVVDCQPVHDEATPSQTTVLVVICGSVKFEGNKQRDFNQNFILTAQASPSNTVWKIASDCFRFQDWAS
In the case of B1, the binding result is on record as “binds”.
